According to article PMC3668167, “Ski-interacting protein (SKIP) interacts with androgen receptor in the nucleus and modulates androgen-dependent transcription” (BMC Biochemistry, 2013):
Each block holds one binder with its values, some of them ahead of it.

Assays:
[1] = target: T1, GAL4 DNA binding domain fusion of AR-LBD residues 642-917 (pM-GAL4DBD-AR642-917) (human, UniProt P10275 642-917); assay: two-hybrid; mammalian two-hybrid in HEK293 cells, GAL4(5)E1bTATA-luciferase reporter, GAL4DBD-AR642-917 with pVP16-AR1-538, SKIP-pCGN co-expressed, 1 nM DHT; activity relative to empty vectors without DHT; conditions: partners not purified
T1 construct: also called AR-LBD 642-917; AR C-terminus; source: HEK293, transfected, mammalian two-hybrid fusion
T1 sequence (looked up): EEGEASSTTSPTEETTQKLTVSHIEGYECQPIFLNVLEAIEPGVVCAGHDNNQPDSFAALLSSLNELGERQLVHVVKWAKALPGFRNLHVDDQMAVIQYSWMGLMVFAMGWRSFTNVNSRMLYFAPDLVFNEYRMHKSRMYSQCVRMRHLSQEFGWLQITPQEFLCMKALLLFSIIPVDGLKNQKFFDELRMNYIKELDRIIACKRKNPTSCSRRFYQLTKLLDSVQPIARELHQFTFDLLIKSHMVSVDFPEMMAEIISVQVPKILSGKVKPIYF

[2] = target: T1, GAL4 DNA binding domain fusion of …; assay: two-hybrid; mammalian two-hybrid in HEK293 cells, GAL4(5)E1bTATA-luciferase reporter, GAL4DBD-AR642-917 with pVP16-AR1-538, empty pCGN (no SKIP), 1 nM DHT; activity relative to empty vectors without DHT; conditions: partners not purified
[3] = target: T1, GAL4 DNA binding domain fusion of …; assay: cell-based or functional assay
[4] = target: T2, GAL4 DNA binding domain fusion of the AR AF-1 fragment, residues 1-555 (pM-GAL4DBD-AR-AF1) (human, UniProt P10275 1-555); assay: cell-based or functional assay
T2 sequence (looked up): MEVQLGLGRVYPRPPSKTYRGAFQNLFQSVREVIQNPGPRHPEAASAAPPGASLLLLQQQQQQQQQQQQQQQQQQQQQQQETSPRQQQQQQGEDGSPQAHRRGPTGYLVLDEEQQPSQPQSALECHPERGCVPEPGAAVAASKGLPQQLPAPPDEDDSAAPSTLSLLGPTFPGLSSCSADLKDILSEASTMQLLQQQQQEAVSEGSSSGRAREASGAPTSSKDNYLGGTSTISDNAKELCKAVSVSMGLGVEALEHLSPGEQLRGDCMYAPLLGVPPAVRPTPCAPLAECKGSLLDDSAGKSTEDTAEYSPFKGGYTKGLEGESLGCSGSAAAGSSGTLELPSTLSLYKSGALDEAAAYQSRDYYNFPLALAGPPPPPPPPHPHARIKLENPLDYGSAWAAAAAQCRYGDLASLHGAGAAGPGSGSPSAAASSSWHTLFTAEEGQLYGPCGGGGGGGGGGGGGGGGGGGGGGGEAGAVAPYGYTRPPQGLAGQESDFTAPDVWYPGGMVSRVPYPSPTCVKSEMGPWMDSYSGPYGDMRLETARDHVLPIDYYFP

relative luciferase activity, fold over control (SKIP co-expressed) [1]: ~300 fold
relative luciferase activity, fold over control [2]: 12 fold
B1: VP16 activation domain fusion of AR residues 1-538 (pVP16-AR1-538) (domain or fragment, human, UniProt P10275 1-538, looked up)
chain: MEVQLGLGRVYPRPPSKTYRGAFQNLFQSVREVIQNPGPRHPEAASAAPPGASLLLLQQQQQQQQQQQQQQQQQQQQQQQETSPRQQQQQQGEDGSPQAHRRGPTGYLVLDEEQQPSQPQSALECHPERGCVPEPGAAVAASKGLPQQLPAPPDEDDSAAPSTLSLLGPTFPGLSSCSADLKDILSEASTMQLLQQQQQEAVSEGSSSGRAREASGAPTSSKDNYLGGTSTISDNAKELCKAVSVSMGLGVEALEHLSPGEQLRGDCMYAPLLGVPPAVRPTPCAPLAECKGSLLDDSAGKSTEDTAEYSPFKGGYTKGLEGESLGCSGSAAAGSSGTLELPSTLSLYKSGALDEAAAYQSRDYYNFPLALAGPPPPPPPPHPHARIKLENPLDYGSAWAAAAAQCRYGDLASLHGAGAAGPGSGSPSAAASSSWHTLFTAEEGQLYGPCGGGGGGGGGGGGGGGGGGGGGGGEAGAVAPYGYTRPPQGLAGQESDFTAPDVWYPGGMVSRVPYPSPTCVKSEMGPWMDSYSGPYGDM
notes: androgen receptor, human, N-terminal residues 1-538; also called AR N-terminus; source: HEK293, transfected, mammalian two-hybrid fusion

GAL4 luciferase reporter in HEK293 cells: ligand-dependent (1 nM DHT) activation of the AR-LBD 642-917 construct with overexpressed SKIP (Figure 2 column 7) [3]: 9 fold
mammalian one-hybrid luciferase reporter in HEK293 cells: AR-AF-1 (GAL4DBD-AR1-555) ligand-independent transcriptional activity with overexpressed SKIP against without SKIP [4]: ~5 fold
B2: HA-tagged Ski-interacting protein (SKIP-pCGN) (natural protein, human, UniProt Q13573 1-536, looked up)
chain: MALTSFLPAPTQLSQDQLEAEEKARSQRSRQTSLVSSRREPPPYGYRKGWIPRLLEDFGDGGAFPEIHVAQYPLDMGRKKKMSNALAIQVDSEGKIKYDAIARQGQSKDKVIYSKYTDLVPKEVMNADDPDLQRPDEEAIKEITEKTRVALEKSVSQKVAAAMPVRAADKLAPAQYIRYTPSQQGVAFNSGAKQRVIRMVEMQKDPMEPPRFKINKKIPRGPPSPPAPVMHSPSRKMTVKEQQEWKIPPCISNWKNAKGYTIPLDKRLAADGRGLQTVHINENFAKLAEALYIADRKAREAVEMRAQVERKMAQKEKEKHEEKLREMAQKARERRAGIKTHVEKEDGEARERDEIRHDRRKERQHDRNLSRAAPDKRSKLQRNENRDISEVIALGVPNPRTSNEVQYDQRLFNQSKGMDSGFAGGEDEIYNVYDQAWRGGKDMAQSIYRPSKNLDKDMYGDDLEARIKTNRFVPDKEFSGSDRRQRGREGPVQFEEDPFGLDKFLEEAKQHGGSKRPSDSSRPKEHEHEGKKRRKE
